Measured values as given in patent publication US20160237153A1 (DUKE UNIVERSITY, published 2016).

Legend:
[1] = target: T1, mouse NaV1.5 expressed in HEK293 cells (mouse, UniProt Q9JJV9 1-2019); assay: cell-based or functional assay
[2] = target: T2, mouse NaV1.6 expressed in HEK293 cells (mouse, UniProt Q9WTU3 1-1978); assay: cell-based or functional assay
[3] = target: T3, rat NaV1.8 expressed in HEK293 cells (rat, UniProt Q62968 1-1956); assay: cell-based or functional assay
[4] = target: T4, human NaV1.7 expressed in HEK293 cells (human, UniProt Q15858 1-1988); assay: cell-based or functional assay
[5] = target: T5, human NaV1.1 expressed in HEK293 cells (human, UniProt P35498 1-2009); assay: cell-based or functional assay
[6] = target: T6, rat NaV1.2 expressed in HEK293 cells (rat, UniProt P04775 1-2005); assay: cell-based or functional assay
[7] = target: T7, human NaV1.3 expressed in HEK293 cells (human, UniProt Q9NY46 1-2000); assay: cell-based or functional assay
[8] = target: T8, human NaV1.4 expressed in HEK293 cells (human, UniProt P35499 1-1836); assay: cell-based or functional assay
[9] = target: T1, mouse NaV1.5 expressed in HEK293 cells; assay: cell-based or functional assay; remark: listed apart in the source
[10] = target: T2, mouse NaV1.6 expressed in HEK293 cells; assay: cell-based or functional assay; remark: listed apart in the source
[11] = target: T3, rat NaV1.8 expressed in HEK293 cells; assay: cell-based or functional assay; remark: listed apart in the source
[12] = target: T4, human NaV1.7 expressed in HEK293 cells; assay: cell-based or functional assay; remark: listed apart in the source
[13] = target: T5, human NaV1.1 expressed in HEK293 cells; assay: cell-based or functional assay; remark: listed apart in the source
[14] = target: T6, rat NaV1.2 expressed in HEK293 cells; assay: cell-based or functional assay; remark: listed apart in the source
[15] = target: T7, human NaV1.3 expressed in HEK293 cells; assay: cell-based or functional assay; remark: listed apart in the source
[16] = target: T8, human NaV1.4 expressed in HEK293 cells; assay: cell-based or functional assay; remark: listed apart in the source
[17] = target: T4, human NaV1.7 expressed in HEK293 cells; assay: fraction bound = 1 - I/I0 from whole-cell voltage clamp of hNaV1.7 in HEK293 cells, 30 ms pulses to -10 mV from -120 mV at 10 Hz; mean±S.E.M., n=10
[18] = target: T4, human NaV1.7 expressed in HEK293 cells; assay: apparent KD from whole-cell voltage clamp of hNaV1.7 in HEK293 cells at 10 Hz; fraction bound Y=1-I/I0 fitted to a one-site binding equation; apparent KD from inhibition of peak sodium current (Y=1-I/IO), one-site fit, n=10

T6 sequence (P04775 whole entry): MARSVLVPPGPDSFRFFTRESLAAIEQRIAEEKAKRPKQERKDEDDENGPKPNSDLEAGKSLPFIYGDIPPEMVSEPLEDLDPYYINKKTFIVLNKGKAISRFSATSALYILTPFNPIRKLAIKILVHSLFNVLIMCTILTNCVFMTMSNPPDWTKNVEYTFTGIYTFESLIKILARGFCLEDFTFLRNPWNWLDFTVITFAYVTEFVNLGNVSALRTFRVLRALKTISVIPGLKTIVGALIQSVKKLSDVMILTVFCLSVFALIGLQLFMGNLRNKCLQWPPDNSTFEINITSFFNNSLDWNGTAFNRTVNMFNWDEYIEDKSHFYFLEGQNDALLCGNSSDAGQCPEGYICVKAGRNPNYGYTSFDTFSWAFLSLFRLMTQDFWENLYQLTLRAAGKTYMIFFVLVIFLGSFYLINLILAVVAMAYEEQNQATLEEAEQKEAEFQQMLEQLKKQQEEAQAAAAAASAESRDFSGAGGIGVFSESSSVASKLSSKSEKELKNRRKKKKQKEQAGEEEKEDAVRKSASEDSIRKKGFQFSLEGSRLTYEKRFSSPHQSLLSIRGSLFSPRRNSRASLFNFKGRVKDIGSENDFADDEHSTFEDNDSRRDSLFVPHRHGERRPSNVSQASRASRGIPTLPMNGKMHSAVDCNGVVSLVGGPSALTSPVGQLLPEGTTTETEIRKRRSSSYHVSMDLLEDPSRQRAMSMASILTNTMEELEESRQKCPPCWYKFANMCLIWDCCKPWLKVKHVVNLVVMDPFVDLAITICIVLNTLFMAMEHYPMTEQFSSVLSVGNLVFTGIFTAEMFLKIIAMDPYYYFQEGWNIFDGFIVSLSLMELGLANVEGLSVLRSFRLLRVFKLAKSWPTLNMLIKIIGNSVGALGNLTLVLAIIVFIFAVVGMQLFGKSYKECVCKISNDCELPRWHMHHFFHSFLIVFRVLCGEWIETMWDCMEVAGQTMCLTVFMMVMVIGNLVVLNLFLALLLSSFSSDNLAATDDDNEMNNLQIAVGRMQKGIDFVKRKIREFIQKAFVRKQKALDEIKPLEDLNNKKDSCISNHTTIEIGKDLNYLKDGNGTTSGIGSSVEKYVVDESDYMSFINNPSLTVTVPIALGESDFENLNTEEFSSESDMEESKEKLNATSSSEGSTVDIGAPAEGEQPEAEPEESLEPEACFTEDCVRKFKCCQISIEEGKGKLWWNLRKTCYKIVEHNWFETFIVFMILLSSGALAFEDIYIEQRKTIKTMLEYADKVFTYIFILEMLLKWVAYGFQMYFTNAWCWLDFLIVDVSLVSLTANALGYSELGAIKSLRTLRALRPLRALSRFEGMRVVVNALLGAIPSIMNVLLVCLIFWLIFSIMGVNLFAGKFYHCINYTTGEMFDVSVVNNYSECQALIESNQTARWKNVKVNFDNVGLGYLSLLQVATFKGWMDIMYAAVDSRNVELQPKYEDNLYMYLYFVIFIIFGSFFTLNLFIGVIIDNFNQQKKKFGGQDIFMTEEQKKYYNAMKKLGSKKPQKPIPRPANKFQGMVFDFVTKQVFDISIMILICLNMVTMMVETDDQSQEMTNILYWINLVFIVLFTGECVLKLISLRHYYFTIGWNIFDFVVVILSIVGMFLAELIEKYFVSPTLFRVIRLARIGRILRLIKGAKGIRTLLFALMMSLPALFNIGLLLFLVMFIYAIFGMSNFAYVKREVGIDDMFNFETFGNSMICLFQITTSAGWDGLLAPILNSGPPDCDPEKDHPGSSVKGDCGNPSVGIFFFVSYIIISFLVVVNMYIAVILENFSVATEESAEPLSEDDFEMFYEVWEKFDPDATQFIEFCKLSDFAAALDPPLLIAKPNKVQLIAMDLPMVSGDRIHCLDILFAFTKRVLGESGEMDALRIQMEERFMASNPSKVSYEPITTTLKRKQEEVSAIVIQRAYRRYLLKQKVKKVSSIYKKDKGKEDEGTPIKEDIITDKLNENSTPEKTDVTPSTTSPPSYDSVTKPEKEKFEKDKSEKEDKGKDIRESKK
T8 sequence (P35499 whole entry): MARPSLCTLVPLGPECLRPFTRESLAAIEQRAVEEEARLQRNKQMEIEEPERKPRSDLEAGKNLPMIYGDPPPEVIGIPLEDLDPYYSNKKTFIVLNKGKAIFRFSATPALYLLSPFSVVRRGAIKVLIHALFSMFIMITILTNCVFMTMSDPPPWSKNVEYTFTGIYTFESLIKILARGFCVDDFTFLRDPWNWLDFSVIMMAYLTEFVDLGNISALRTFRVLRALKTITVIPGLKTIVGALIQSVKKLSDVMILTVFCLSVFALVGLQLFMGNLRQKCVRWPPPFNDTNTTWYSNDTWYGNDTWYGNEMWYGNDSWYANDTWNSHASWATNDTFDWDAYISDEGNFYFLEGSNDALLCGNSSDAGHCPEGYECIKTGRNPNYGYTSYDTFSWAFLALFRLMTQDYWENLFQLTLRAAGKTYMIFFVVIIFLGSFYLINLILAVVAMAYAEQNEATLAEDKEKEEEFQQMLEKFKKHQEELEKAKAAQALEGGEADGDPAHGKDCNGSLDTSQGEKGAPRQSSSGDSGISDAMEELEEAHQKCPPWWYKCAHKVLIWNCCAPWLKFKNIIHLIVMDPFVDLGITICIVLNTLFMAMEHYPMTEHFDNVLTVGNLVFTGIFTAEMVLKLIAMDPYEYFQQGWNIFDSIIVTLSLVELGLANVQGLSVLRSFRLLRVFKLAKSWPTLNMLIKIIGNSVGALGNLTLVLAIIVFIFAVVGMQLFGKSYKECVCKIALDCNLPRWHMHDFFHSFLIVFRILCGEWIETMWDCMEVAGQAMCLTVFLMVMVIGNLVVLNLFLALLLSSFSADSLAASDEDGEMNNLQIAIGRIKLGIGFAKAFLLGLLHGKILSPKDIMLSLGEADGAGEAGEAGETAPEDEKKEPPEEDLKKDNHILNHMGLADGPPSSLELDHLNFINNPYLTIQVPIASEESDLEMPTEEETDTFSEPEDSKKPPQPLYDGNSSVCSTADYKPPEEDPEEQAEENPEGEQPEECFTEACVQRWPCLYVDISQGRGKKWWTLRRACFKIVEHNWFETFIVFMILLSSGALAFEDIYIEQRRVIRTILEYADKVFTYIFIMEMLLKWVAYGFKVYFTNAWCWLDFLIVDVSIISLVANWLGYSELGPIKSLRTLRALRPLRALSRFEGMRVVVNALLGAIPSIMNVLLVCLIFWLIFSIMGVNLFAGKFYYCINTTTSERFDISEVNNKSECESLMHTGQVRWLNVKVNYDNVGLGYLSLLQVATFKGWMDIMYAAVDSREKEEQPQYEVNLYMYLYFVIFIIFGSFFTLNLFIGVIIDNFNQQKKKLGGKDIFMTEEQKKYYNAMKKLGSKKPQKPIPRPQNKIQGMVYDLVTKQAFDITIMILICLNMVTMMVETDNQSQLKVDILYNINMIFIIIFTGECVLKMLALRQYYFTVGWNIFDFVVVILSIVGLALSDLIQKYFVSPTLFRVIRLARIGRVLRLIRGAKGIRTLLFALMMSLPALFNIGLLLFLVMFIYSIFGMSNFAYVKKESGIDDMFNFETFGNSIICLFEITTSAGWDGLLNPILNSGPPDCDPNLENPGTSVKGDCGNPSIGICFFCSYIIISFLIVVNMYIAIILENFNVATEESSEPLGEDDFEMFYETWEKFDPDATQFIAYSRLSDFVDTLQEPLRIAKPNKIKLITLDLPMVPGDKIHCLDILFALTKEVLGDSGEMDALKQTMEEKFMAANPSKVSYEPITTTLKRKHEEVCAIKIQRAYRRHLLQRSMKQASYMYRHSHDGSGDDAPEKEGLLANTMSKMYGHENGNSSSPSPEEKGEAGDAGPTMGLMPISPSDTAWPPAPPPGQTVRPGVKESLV

fold decrease in efficacy relative to NaV1.7 [2]: ~2 fold | fold decrease in potency relative to NaV1.7 [2]: ~200 fold | IC50, sodium current at 2 Hz [3]: > 5 µM | IC50 of inhibition of human NaV1.7 currents at 0.1 Hz [4]: 0.107 µM | IC50 of inhibition of human NaV1.7 currents at 10 Hz [4]: 0.0167 µM | IC50, sodium current at 2 Hz [5]: > 5 µM | IC50, sodium current at 2 Hz [6]: > 5 µM | IC50, sodium current at 2 Hz [7]: > 5 µM | IC50, sodium current at 2 Hz [8]: > 5 µM | IC50 (µM), sodium current at 2 Hz [10]: 6.3 µM | Maximum inhibition (%) [10]: 44.2% | Selectivity for Nav1.7 [10]: 404 fold | IC50 (µM), sodium current at 2 Hz [11]: 5.2 µM | Maximum inhibition (%) [11]: 22.1% | Selectivity for Nav1.7 [11]: 666 fold | IC50 (µM), sodium current at 2 Hz [12]: 0.0307 µM | Maximum inhibition (%) [12]: 86.9% | Selectivity for Nav1.7 [12]: 1 fold | IC50 (µM), sodium current at 2 Hz [13]: 6.3 µM | Maximum inhibition (%) [13]: 20.7% | Selectivity for Nav1.7 [13]: 862 fold | IC50 (µM), sodium current at 2 Hz [14]: 9 µM | Maximum inhibition (%) [14]: 18.7% | Selectivity for Nav1.7 [14]: 1360 fold | IC50 (µM), sodium current at 2 Hz [15]: 8.7 µM | Maximum inhibition (%) [15]: 16.2% | Selectivity for Nav1.7 [15]: 1520 fold | IC50 (µM), sodium current at 2 Hz [16]: 7.9 µM | Maximum inhibition (%) [16]: 21.5% | Selectivity for Nav1.7 [16]: 1040 fold | EC50 (read off the curve) [17]: ~0.02 µM | Kd [18]: 0.0229 µM
B1: 1E16 monoclonal antibody (antibody, IgG1, V domains shown)
VH: QGQMQQSGAELVKPGASVKLSCKTSGFTFSSSYISWLKQKPGQSLEWIAWIYAGTGGTSYNQKFTGKAQLTVDTSSSTAYMQFSSLTTEDSAIYYCARQDGNYRYWYFDVWGAGTTVTVSS
VL: ETTVTQSPASLSMAIGEKVTIRCITSTDIDDDMNWYQQKPGEPPKLLISEGNTLRPGVPSRFSSSGYGTDFVFTIENMLSEDVADYYCLQSDNLPLTFGGGTKLEIK
notes: also called 1E16 mAb; 1E16 Ab
IC50, sodium current at 2 Hz [1]: > 5 µM | IC50 (µM), sodium current at 2 Hz [9]: 5.6 µM | Maximum inhibition (%) [9]: 19.1% | Selectivity for Nav1.7 [9]: 830 fold
